{"source": "paper PMC4817253"}
{"system": "Nc1ncnc2c1ncn2[C@@H]1O[C@H](CO[P@](=O)(O)O[C@@H]2[C@H](O)[C@@H](CO[P@](=O)(O)O[C@@H]3[C@H](O)[C@@H](CO[P@](=O)(O)O[P@@](=O)(O)OP(=O)(O)O)O[C@H]3n3cnc4c(N)ncnc43)O[C@H]2n2cnc3c(N)ncnc32)[C@@H](O)[C@H]1O", "assay": "purified protein", "details": "pH 7.2; 30.0 °C", "units": {"Km": "µM", "kcat/Km": "M⁻¹ s⁻¹"}}
{"substance": "HKU5 NS4b (Pipistrellus bat coronavirus HKU5)", "Km": "1.3 ± 0.3", "kcat/Km": "1.4e+06"}
{"substance": "MERS-CoV NS4b (Human betacoronavirus 2c EMC/2012)", "Km": "2.6 ± 0.6", "kcat/Km": 800000}
{"substance": "MHV NS2 (Murine hepatitis virus strain A59)", "Km": "6.7 ± 1.6"}
{"substance": "SC2013 NS4b (BtVs-BetaCoV/SC2013)", "Km": "2.9 ± 0.6", "kcat/Km": 800000}
